# Reference: patent US20240317834A1, “COMPOSITIONS AND METHODS FOR NEUROLOGICAL DISEASES” (CODA BIOTHERAPEUTICS, INC., priority 2020, published 2024)
# B1: CODA534: engineered chimeric LGIC receptor, L131S, S172D in SEQ ID NO: 33 (protein)
# chain: MRCSPGGVWLALAASLLHVSLQGEFQRKLYKELVKNYNPLERPVANDSQPLTVYFSLSLLQIMDVDEKNQVLTTNIWLQMSWTDHYLQWNVSEYPGVKTVRFPDGQIWKPDILLYNSADERFDATFHTNVSVNSSGHCQYLPPGIFKSSCPMDLKNFPMDVQTCKLKFGSWDYGGWSLDLQMQEADISGYIPNGEWDLVGIPGKRSERFYECCKEPYPDVTFTVTMRRRMGYYLIQMYIPSLLIVILSWISFWINMDAAPARVGLGITTVLTMTTQSSGSRASLPKVSYVKAIDIWMAVCLLFVFSALLEYAAVNFVSRQHKELLRFRRKRRHHKSPMLNLFQEDEAGEGRFNFSAYGMGPACLQAKDGISVKGANNSNTTNPPPAPSKSPEEMRKLFIQRAKKIDKISRIGFPMAFLIFNMFYWIIYKIVRREDVHNQ
# modifications: synthetic sequence of chimeric LGIC
# System: Lenti-X 293T cells
# Assay: YFP fluorescence quenching anion reporter plate reader assay of engineered receptors stimulated with acetylcholine or a non-native ligand
# Type: cell-based
# Procedure, shortened: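 Lenti-X 293T cells carrying a YFP anion reporter were transiently transfected with channel DNA and assayed the next day in HEPES-buffered ECS at pH 7.2. Ligand (acetylcholine or non-native ligand) was added in NaI-substituted ECS. Percent quench was the mean of the last 10 s relative to the 15 s pre-addition baseline.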
molecule,measurement,setting,value
B1,YFP fluorescence quenching using CNL001,"1 nM CNL001, first column",23.438%
same,YFP fluorescence quenching using CNL001,"1 nM CNL001, second column",28.59%
same,YFP fluorescence quenching using TC-5619/Bradanicline,1 nM brd,−1.13%
same,YFP fluorescence quenching using TC-5619/Bradanicline,3 nM brd,−3.83%
same,YFP fluorescence quenching using CNL001,"10 nM CNL001, first column",56.882%
same,YFP fluorescence quenching using CNL001,"10 nM CNL001, second column",56.777%
same,YFP fluorescence quenching using TC-5619/Bradanicline,10 nM brd,−3.78%
same,YFP fluorescence quenching using Facinicline,30 nM fac,−23.44
same,YFP fluorescence quenching using CNL001,"50 nM CNL001, first column",65.044%
same,YFP fluorescence quenching using CNL001,"50 nM CNL001, second column",67.373%
same,YFP fluorescence quenching using ABT-126,50 nM abt,−11.96%
same,YFP fluorescence quenching using CNL001,"100 nM CNL001, first column",68.666%
same,YFP fluorescence quenching using CNL001,"100 nM CNL001, second column",70.357%
same,YFP fluorescence quenching using CNL002,100 nM CNL002,14.26%
same,YFP fluorescence quenching using ABT-126,100 nM abt,−10.72%
same,YFP fluorescence quenching using AZD-0328,100 nM azd0328,−9.32%
same,YFP fluorescence quenching using TC-5619/Bradanicline,100 nM brd,−2.03%
same,YFP fluorescence quenching using ABT-126,300 nM abt,11.65%
same,YFP fluorescence quenching using AZD-0328,300 nM azd0328,4.94%
same,YFP fluorescence quenching using Facinicline,300 nM fac,2.75
same,YFP fluorescence quenching using CNL001,"1 uM CNL001, first column",73.019%
same,YFP fluorescence quenching using CNL001,"1 uM CNL001, second column",73.527%
same,YFP fluorescence quenching using CNL002,1 uM CNL002,45.55%
same,YFP fluorescence quenching using ABT-126,1 uM abt,−3.06%
same,YFP fluorescence quenching using TC-5619/Bradanicline,1 uM brd,1.68%
same,YFP fluorescence quenching using TC-6987,1 uM tc6987,−20.99
same,YFP fluorescence quenching using Facinicline,10 uM fac,69.71
same,YFP fluorescence quenching using TC-6987,10 uM tc6987,−27.62
same,YFP fluorescence quenching using CNL002,30 uM CNL002,64.93%
same,YFP fluorescence quenching using AZD-0328,30 uM azd0328,60.61%
same,YFP fluorescence quenching using Facinicline,30 uM fac,61.44
same,YFP fluorescence quenching using TC-6987,500 uM tc6987,−24.22
same,"percent quench of YFP fluorescence, 30 nM TC-6683",TC-6683 30 nM,−22.464%
same,"percent quench of YFP fluorescence, 300 nM TC-6683",TC-6683 300 nM,−23.976%
same,"percent quench of YFP fluorescence, 3 uM TC-6683",TC-6683 3 uM,−24.897%
same,"percent quench of YFP fluorescence, 30 uM TC-6683",TC-6683 30 uM,−20.474%
same,"percent quench of YFP fluorescence, 100 uM TC-6683",TC-6683 100 uM,−22.253%
same,"percent quench of YFP fluorescence, 10 uM ach",acetylcholine 10 uM,−11.3%
same,"percent quench of YFP fluorescence, 100 uM ach",acetylcholine 100 uM,−27.53%
same,"percent quench of YFP fluorescence, 1 mM ach",acetylcholine 1 mM,2.84%
same,"percent quench of YFP fluorescence, 3 mM ach",acetylcholine 3 mM,14.65%
